For two substances, summed signal-to-noise value for TMT channel and irsin/adipsin (TMT ratio) results are on record in patent publication US20210063414A1, “METHODS FOR PREVENTING AND/OR TREATING BONE LOSS CONDITIONS BY MODULATING IRISIN” (Dana-Farber Cancer Institute, Inc., priority 2018, published 2021).

The target of assay [1] is Protocadherin alpha-4 (Pcdha4) of MLO-Y4 cells (mouse) (UniProt O88689). Nature of the assay: DTSSP cross-linking on MLO-Y4 cells, his-tag pull-down, TMT mass spectrometry; adipsin (control) channel.
Protocadherin alpha-4 (Pcdha4) of MLO-Y4 cells (mouse), sequence (O88689 other isoform, or with tags, fused parts or gaps): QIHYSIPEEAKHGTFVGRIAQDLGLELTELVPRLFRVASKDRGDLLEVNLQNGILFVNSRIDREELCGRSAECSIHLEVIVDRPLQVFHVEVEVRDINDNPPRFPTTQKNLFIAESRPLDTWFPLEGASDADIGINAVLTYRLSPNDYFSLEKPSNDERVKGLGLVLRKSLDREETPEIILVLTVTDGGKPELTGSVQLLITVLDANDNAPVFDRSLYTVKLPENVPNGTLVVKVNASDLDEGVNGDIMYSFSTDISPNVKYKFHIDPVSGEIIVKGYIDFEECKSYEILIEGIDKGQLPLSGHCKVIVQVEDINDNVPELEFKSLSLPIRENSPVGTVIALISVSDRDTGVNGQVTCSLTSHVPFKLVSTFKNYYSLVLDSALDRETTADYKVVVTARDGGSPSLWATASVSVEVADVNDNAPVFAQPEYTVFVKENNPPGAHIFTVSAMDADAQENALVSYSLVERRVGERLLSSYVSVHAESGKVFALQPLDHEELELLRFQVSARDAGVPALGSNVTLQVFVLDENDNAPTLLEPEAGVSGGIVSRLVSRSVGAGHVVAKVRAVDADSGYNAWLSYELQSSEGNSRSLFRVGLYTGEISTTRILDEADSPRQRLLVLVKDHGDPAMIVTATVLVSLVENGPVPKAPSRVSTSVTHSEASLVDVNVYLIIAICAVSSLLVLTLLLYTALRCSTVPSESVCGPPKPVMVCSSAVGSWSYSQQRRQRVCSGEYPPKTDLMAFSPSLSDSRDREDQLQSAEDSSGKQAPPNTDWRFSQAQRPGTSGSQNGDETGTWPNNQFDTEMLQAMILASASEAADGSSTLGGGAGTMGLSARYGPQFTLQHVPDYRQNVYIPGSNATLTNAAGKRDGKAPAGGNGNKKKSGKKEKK
Assay [2] has as its target Integrin beta-1 (Itgb1) of MLO-Y4 cells (mouse) (UniProt P09055). The description is as above.
The target in assay [3] is T1, CD81 antigen (Cd81) of MLO-Y4 cells (mouse) (UniProt P35762).
T1 sequence (looked up): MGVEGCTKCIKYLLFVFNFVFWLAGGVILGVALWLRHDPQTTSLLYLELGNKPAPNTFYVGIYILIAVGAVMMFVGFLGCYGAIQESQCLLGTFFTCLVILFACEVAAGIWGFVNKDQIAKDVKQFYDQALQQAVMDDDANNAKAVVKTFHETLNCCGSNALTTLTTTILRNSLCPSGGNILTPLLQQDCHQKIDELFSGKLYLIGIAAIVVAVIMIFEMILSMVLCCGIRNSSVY
The description is as above.

Assay [4] addresses Fibronectin type III domain-containing protein 3B (Fndc3b) of MLO-Y4 cells (mouse) (UniProt Q6NWW9). The description is as above.
Assay [5] addresses T2, Integrin beta-5 (Itgb5) of MLO-Y4 cells (mouse) (UniProt O70309).
T2 sequence (looked up): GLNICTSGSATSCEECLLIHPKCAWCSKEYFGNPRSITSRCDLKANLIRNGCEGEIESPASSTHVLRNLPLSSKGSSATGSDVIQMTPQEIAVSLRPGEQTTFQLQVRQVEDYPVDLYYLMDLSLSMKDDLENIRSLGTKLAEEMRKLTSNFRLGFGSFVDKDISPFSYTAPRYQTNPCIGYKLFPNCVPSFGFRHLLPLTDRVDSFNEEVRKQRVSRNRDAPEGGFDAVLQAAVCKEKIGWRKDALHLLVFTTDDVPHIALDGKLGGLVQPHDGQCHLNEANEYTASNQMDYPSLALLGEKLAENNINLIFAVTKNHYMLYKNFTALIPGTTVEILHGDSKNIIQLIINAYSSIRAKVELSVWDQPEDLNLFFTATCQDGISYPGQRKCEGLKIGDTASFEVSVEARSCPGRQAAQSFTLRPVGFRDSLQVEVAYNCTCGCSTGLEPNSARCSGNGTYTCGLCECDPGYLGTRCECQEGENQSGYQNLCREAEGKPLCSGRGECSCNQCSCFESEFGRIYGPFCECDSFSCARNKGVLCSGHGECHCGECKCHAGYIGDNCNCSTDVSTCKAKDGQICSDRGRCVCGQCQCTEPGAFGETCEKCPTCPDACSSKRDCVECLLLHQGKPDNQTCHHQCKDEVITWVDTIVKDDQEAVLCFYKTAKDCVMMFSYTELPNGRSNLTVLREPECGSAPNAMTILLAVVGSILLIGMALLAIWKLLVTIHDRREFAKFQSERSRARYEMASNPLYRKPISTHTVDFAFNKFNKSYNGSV
Described as above.

Assay [6] has as its target T3, Integrin alpha-V (Itgav) of MLO-Y4 cells (mouse) (UniProt P43406).
T3 sequence (looked up): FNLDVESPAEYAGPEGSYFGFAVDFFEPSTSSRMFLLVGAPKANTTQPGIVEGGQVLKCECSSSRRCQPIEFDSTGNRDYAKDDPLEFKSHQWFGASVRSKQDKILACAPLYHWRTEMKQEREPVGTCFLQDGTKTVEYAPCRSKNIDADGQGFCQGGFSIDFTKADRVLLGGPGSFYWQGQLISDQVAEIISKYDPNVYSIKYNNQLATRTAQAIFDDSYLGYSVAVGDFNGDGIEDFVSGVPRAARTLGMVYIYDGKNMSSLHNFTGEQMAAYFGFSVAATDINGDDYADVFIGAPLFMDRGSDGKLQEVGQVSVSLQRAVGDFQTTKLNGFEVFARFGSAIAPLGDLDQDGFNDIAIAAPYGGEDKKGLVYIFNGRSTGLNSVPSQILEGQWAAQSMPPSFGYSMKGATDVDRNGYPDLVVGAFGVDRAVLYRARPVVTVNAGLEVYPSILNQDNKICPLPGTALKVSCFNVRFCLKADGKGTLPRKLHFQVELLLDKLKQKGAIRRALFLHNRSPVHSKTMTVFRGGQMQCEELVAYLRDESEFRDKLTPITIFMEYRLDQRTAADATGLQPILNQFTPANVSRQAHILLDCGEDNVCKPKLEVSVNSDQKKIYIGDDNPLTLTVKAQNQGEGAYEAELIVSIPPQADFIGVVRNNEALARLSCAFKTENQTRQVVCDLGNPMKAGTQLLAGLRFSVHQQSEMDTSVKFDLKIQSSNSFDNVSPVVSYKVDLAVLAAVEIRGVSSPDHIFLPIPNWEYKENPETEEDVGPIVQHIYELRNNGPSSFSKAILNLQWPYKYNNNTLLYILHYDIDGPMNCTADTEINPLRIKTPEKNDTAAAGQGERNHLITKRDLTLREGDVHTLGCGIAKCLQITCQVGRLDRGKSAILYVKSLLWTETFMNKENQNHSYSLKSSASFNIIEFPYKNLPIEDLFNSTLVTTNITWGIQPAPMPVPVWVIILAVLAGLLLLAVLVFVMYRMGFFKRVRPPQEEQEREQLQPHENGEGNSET
The description is as above.

In assay [7] the target is T4, Membrane magnesium transporter 1 (Mmgt1) of MLO-Y4 cells (mouse) (UniProt Q8K273).
T4 sequence (looked up): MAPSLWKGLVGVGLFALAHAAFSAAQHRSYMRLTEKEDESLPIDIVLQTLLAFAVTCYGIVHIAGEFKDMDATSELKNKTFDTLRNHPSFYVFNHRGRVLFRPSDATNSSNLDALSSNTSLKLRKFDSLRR
The assay is described as above.

Assay [8] addresses Protocadherin alpha-4 (Pcdha4) of MLO-Y4 cells (mouse) (UniProt O88689). Nature of the assay: DTSSP cross-linking of his-tag ligand on MLO-Y4 cells, his-tag pull-down, TMT quantitative mass spectrometry; ratio to his-tag adipsin control.
Assay [9] concerns the target Membrane magnesium transporter 1 (Mmgt1) of MLO-Y4 cells (mouse) (UniProt Q8K273). The description is as above.
Assay [10] addresses T1, CD81 antigen (Cd81) of MLO-Y4 cells (mouse). The description is as above.
The target of assay [11] is Fibronectin type III domain-containing protein 3B (Fndc3b) of MLO-Y4 cells (mouse) (UniProt Q6NWW9). The description is as above.
Fibronectin type III domain-containing protein 3B (Fndc3b) of MLO-Y4 cells (mouse), sequence (Q6NWW9 whole entry, the tested form may be a part): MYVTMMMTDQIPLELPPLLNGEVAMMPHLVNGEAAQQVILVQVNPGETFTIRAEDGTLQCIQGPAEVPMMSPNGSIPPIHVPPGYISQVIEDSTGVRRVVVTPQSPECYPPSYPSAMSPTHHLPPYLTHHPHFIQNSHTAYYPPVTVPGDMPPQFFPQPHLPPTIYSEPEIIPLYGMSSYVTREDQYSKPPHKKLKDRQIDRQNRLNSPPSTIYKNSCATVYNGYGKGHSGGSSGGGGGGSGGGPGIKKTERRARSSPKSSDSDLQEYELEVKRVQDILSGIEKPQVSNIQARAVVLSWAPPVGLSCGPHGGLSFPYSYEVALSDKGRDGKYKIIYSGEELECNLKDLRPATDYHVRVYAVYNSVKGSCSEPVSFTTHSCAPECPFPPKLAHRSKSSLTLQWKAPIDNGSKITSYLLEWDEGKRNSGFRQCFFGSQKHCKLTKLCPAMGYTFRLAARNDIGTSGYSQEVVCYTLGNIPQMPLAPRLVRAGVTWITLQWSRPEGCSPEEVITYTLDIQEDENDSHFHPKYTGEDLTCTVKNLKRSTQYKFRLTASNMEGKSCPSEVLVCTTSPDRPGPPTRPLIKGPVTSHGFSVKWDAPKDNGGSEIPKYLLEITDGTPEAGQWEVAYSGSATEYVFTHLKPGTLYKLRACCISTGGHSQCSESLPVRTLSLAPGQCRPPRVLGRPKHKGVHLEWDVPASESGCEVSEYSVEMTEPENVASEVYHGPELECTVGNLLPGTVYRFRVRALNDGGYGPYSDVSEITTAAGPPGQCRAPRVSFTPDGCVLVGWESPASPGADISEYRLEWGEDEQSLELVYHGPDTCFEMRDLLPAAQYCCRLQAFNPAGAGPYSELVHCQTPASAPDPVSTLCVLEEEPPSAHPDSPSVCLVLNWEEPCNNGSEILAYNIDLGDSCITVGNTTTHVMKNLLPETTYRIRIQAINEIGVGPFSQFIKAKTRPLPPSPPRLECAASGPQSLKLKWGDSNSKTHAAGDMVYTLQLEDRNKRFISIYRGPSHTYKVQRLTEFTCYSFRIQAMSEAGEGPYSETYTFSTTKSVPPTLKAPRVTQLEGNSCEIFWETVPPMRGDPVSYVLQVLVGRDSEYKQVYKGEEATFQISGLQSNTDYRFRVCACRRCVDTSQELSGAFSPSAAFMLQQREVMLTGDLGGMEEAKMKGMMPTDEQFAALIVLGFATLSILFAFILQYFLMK
In assay [12] the target is Protocadherin alpha-4 (Pcdha4) of MLO-Y4 cells (mouse) (UniProt O88689). Nature of the assay: DTSSP cross-linking on MLO-Y4 cells, his-tag pull-down, TMT mass spectrometry; irisin channel.
Assay [13] has as its target Membrane magnesium transporter 1 (Mmgt1) of MLO-Y4 cells (mouse) (UniProt Q8K273). The assay is described as above.
Assay [14] has as its target T1, CD81 antigen (Cd81) of MLO-Y4 cells (mouse). The description is as above.
For assay [15], the target named is Fibronectin type III domain-containing protein 3B (Fndc3b) of MLO-Y4 cells (mouse) (UniProt Q6NWW9). The description is as above.

His-tag adipsin (R&D Systems, Cat. # AF1824-SP), sequence (P00746 26-253): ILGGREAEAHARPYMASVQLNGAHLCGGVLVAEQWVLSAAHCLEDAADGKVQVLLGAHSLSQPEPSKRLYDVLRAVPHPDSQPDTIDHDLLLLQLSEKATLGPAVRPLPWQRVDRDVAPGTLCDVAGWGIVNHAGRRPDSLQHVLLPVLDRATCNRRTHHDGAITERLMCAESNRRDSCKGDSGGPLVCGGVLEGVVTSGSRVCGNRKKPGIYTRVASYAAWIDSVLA
Integrin beta-1 (Itgb1) of MLO-Y4 cells (mouse), sequence (P09055 21-798): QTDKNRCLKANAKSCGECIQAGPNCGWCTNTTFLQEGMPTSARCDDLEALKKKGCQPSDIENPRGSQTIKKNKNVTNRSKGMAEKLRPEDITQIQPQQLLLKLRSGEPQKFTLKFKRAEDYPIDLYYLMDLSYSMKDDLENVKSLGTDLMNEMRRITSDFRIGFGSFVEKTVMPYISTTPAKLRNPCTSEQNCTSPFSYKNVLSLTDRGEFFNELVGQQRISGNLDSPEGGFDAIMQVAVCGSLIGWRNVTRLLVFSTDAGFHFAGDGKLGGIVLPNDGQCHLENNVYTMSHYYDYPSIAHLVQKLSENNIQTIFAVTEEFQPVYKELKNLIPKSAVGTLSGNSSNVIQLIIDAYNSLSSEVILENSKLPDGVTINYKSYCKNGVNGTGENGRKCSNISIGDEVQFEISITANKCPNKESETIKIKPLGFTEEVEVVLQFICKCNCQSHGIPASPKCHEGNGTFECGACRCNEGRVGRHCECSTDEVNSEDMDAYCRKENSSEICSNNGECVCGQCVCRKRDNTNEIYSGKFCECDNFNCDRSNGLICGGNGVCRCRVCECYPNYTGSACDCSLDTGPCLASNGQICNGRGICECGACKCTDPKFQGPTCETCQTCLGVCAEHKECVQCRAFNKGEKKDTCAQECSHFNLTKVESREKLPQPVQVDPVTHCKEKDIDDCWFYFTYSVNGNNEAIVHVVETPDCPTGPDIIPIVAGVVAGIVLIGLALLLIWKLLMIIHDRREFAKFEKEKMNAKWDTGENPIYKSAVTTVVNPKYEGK

Consider “His-tag adipsin (R&D Systems, Cat. # AF1824-SP)”, for which the summed signal-to-noise value for TMT channel in assay [1] was determined as 17.1; in [2], 250; in assay [3], 105; in assay [4], 449; in assay [5], 148; in assay [6], 54.4. For the same substance, the summed signal-to-noise value for TMT channel in assay [7] was 17.4.

As for “His-tag recombinant irisin (irisin (human/mouse) with a C-terminal 10 his tag, produced in HEK293 cells) (from UniProt Q8K3V5 60-171) (ligand)”, the irsin/adipsin (TMT ratio) in assay [8] was determined as 4.39; in [9], 2.94; in [10] it was 4.05; in [11], 2.88. Besides, the summed signal-to-noise value for TMT channel in assay [12] came to 75.2; in assay [13], 51.2; in assay [14], 427; in assay [15], 1290.
